Results reported in patent publication US20130046257A1, “METHODS OF USING AGENTS THAT MODULATE CLAUDIN EXPRESSION” (priority 2010, published 2013).
Entries after “also recorded” stand apart in the source; their conditions may differ.

What was measured:
[1] = system: primary human keratinocytes (PHK); test: Trans Epithelial Electric Resistance (TEER) of PHK; type: cell-based
Method: Human keratinocytes were isolated from neonatal foreskin. Poumay et al., “Basal Detachment of the Epidermis Using Dispase: Tissue Spatial Organization and Fate of Integrin Alpha 6 Beta 4 and Hemidesmosomes,” J. Invest. Dermatol. 102:111-7 (1994), which is hereby incorporated by reference in its entirety. PHK were cultured in Keratinocyte-SFM (Invitrogen/Gibco) with 1% Pen/Strep, 0.2% Amphotericin B (Invitrogen/Gibco). To differentiate PHK, cells were grown in DMEM (Invitrogen/Gibco) with 10% heat-inactivated fetal bovine serum (Invitrogen/Gibco) and 1% Pen/Strep, 0.2% Amphotericin B (Invitrogen/Gibco). For TJ modulation experiments, the following cytokines were added alone or in combination to the differentiation media; human IL-4 (50 ng/ml; R&D system) and IL-13 (50 ng/ml; R&D system).
PHK were plated at a subconfluent density of 2.5−3×10^4 cells/filter in Transwell insert and cultured in Keratinocyte-SFM media until confluent. TEER was measured using an EVOMX voltohmmeter (World Precision Instruments, Sarasota, Fla.). The resistance of cell-free filters was subtracted from each experimental value.
PHK were plated on glass coverslips at 2-3×10^5 cells/well in a 6-well plate or at 2-3×10^4 cells/filter in Transwell insert (Costar; PET membrane, 0.4 μm pore size, 6.5 mm insert) in Keratinocyte-SFM without antibiotics. The next day after plating, cells were transfected with claudin-1 specific or control (scrambled) siRNAs (Santa Cruz) using Lipofectamine™ 2000 transfection Reagent (Invitrogen). TEER and permeability experiments were conducted 48 hours after PHK were switched to differentiation media.
TEER was measured in PHK as described above. PHK were stimulated with S. aureus-derived peptidoglycan (PGN, 0.2-20 μg/ml, n=3-7) (FIG. 19A), Malp-2 (10-1000 ng/ml, n=3) (FIG. 19B), and Pam3CSK4 a TLR1/2 ligand (0.01-20 μg/ml, n=3-6) (FIG. 19C). Data are presented by analyzing the area under the TEER curve and normalized to the mean values for the control group (media alone)*p<0.05; **p<0.01.

[2] = system: occludin, ZO-1, nectin-1, E-cadherin, filaggrin mRNA; test: qPCR of other barrier genes in claudin-1 siRNA transfected PHK; type: cell-based, human; conditions: siRNA 100 nM
Method: (§1) QPCR was performed using the iScript™ cDNA Synthesis kit and iQ™ SYBER Green Supermix assay system (Bio-Rad Laboratories). All PCR amplifications were carried out in triplicate on an iQ5 Multicolor real-time PCR detection system (Bio-Rad). Primers were designed and synthesized by Integrated
(§2) DNA Technologies (Table 1). Relative gene expression was calculated by using the 2^−ΔΔCt method. Livak and Schmittgen, “Analysis of Relative Gene Expression Data Using Real-Time Quantitative PCR and the 2(-Delta Delta C(T)) Method,” Methods 25:402-8 (2001), which is hereby incorporated by reference in its entirety. The normalized Ct value of each sample was calculated using GAPDH as an endogenous control gene.
Reverse transcription was performed from total RNA using iScript™ cDNA Synthesis kit (Bio-Rad) according to the manufacturer's protocol. qPCR was performed using the iQ™ SYBER Green Supermix assay system from Bio-Rad Laboratories. All PCR amplifications were carried out in triplicate on an iQ5 Multicolor real-time PCR detection system (Bio-Rad). Primers were designed and synthesized by Integrated DNA Technologies. Primers used in the study: GAPDH (forward: SEQ ID NO: 16 and reverse: SEQ ID NO: 17); Cldn-1 (forward: (SEQ ID NO:18 and reverse: SEQ ID NO:19); PVRL1 (Nectin1; forward: SEQ ID NO:28 and reverse SEQ ID NO:29).
Relative gene expression was calculated by using the […] method, in which Ct indicates cycle threshold, the fractional cycle number where the fluorescent signal reaches detection threshold. Livak and Schmittgen, “Analysis of Relative Gene Expression Data Using Real-Time Quantitative PCR and the 2(-Delta Delta C(T)) Method,” Methods 25:402-8 (2001), which is hereby incorporated by reference in its entirety. The normalized Ct value of each sample was calculated using GAPDH as an endogenous control gene.

claudin-1 transcripts = test: qPCR of claudin-1 transcripts in PHK transfected with claudin-1 siRNA; type: cell-based, human; conditions: siRNA 100 nM, 2^-ΔΔCt, GAPDH normalised, listed as Cldn1 siRNA
Method: as §1, §2
(§3) PHK were plated on glass coverslips at 2-3×10^5 cells/well in a 6-well plate or at 2-3×10^4 cells/filter in Transwell insert (Costar; PET membrane, 0.4 μm pore size, 6.5 mm insert) in Keratinocyte-SFM without antibiotics. […]
siRNA approach was used to selectively downregulate claudin-1 in primary human keratinocytes (PHK). […] Relative gene expressions were calculated by using the 2^−ΔΔCt method, in which Ct indicates cycle threshold, the fractional cycle number where the fluorescent signal reaches detection threshold. The normalized Ct value of each sample was calculated using GAPDH as endogenous control gene. […]

connexin-26 (GJB2) = test: qPCR of connexin-26 in claudin-1 siRNA transfected PHK; type: cell-based, human; conditions: n=6
Method: as §1, §2

claudin-1 = test: Western blot of claudin-1 in siRNA transfected PHK; type: cell-based, human; conditions: 48 h
Method: PHK were lysed on ice in RIPA lysis buffer (20 mM Tris, 50 mM NaCl, 2 mM EDTA, 2 mM EGTA, 1% sodium deoxycholate, 1% TX-100, and 2% SDS, pH 7.4), with 1:100 Protease Inhibitor Cocktail (Sigma), 1:100 Phosphatase Inhibitor Cocktail ([…] for 30 min at 4° C. The samples were heated at 95° C. for 10 min and then centrifuged at 14,000 rpm for 15 min. Forty μg of protein, determined by BCA (Pierce) in NuPage LDS Sample Buffer (Invitrogen) was applied to 4-12% NuPage Bis-Tris gels (Invitrogen). Electrophoresis was performed under reducing conditions with MES SDS Buffer (Invitrogen). Membranes were incubated in blotting solution (5% non-fat dry milk in PBS+0.05% Tween 20) at RT for 1 h and then incubated with primary antibodies; claudin-1 (JAY.8; Zymed), occludin (OC/3F10; Zymed) and GAPDH (FL-355; Santa Cruz). An HRP-linked secondary antibody (GE Healthcare) was used with ECL (GE Healthcare) to visualize bands by autoradiography with Kodak BioMax MR film. The pixel intensity of each band was estimated with Image J.
as §3

Sequence of claudin-1 (O95832 whole entry): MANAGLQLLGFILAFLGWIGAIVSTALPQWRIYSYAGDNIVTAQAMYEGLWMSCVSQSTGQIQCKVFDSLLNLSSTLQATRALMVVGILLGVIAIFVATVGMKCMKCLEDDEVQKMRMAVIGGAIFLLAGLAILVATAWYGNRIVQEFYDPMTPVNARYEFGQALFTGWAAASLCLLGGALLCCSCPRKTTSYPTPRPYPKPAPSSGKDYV

B1: CLDN1 siRNA: claudin-1 siRNA (h), Santa Cruz; a pool of 3 separate strands, SEQ ID NO: 10-15 (nucleic acid)
chain 1: UACAUAGGCAUAGUUCAUGNN
chain 2: CAUGAACUAUGCCUAUGUANN
chain 3: AACGUAUGCAGUUAAUUCCNN
chain 4: GGAAUUAACUGCAUACGUUNN
chain 5: UGAAGAUCUAUGUAUGUGGNN
chain 6: CCACAUACAUAGAUCUUCANN
modifications: chemistry not given here
TEER (FIG. 12C legend) ([1]; CLDN1 siRNA, PHK, n=4): 80.6±6.4 | TEER ([1]; siRNA 100 nM, PHK 48 hours after switch to differentiation media, n=4): 80.6±6.4 ohms×cm^2 | drop in TEER ([1]; siRNA 100 nM, vs scrambled siRNA-transfected PHK): ≥ 50% | effect on nectin-1 mRNA expression [2]: not affected; also recorded: no effect | effect on mRNA expression of occludin, ZO-1, nectin-1, E-cadherin or filaggrin ([2]; n=5/group): no effect | nectin-1 (PVRL1) mRNA relative expression ([2]; n=5/group): 0.99±0.16 | claudin-1 transcripts, fold of control transfected cells (claudin-1 transcripts): 0.5%±0.06 fold | connexin-26 (GJB2) expression, fold over control (connexin-26 (GJB2)): 1.7±0.8 fold | claudin-1 protein by Western blot (claudin-1): dose-dependent reduction | decrease in claudin-1 protein expression compared to scrambled siRNA-transfected cells (claudin-1; Western blot, dose-dependent): ≤ 60%
